Source: article PMC8303963, “Action of Multiple Rice β-Glucosidases on Abscisic Acid Glucose Ester” (International Journal of Molecular Sciences, 2021)

Substrate: CC1=CC(=O)CC(C)(C)[C@@]1(O)/C=C/C(C)=C\C(=O)O[C@@H]1O[C@H](CO)[C@@H](O)[C@H](O)[C@H]1O
Assay: glucose release by peroxidase/glucose oxidase assay, Michaelis-Menten fit
Type: biochemical, Oryza sativa
Settings: 50 mM sodium acetate pH 5, 30 °C
Description: glucose release by peroxidase/glucose oxidase assay, Michaelis-Menten fit on Os4BGlu12

B1: Os4BGlu12 (Oryza sativa Japonica Group) (protein)
chain: AYNGAGEPPVSRRSFPKGFIFGTASSSYQYEGGAAEGGRGPSIWDTFTHQHPEKIADRSNGDVASDSYHLYKEDVRLMKDMGMDAYRFSISWTRILPNGSLRGGVNKEGIKYYNNLINELLSKGVQPFITLFHWDSPQALEDKYNGFLSPNIINDFKDYAEICFKEFGDRVKNWITFNEPWTFCSNGYATGLFAPGRCSPWEKGNCSVGDSGREPYTACHHQLLAHAETVRLYKAKYQALQKGKIGITLVSHWFVPFSRSKSNDDAAKRAIDFMFGWFMDPLIRGDYPLSMRGLVGNRLPQFTKEQSKLVKGAFDFIGLNYYTANYADNLPPSNGLNNSYTTDSRANLTGVRNGIPIGPQAASPWLYVYPQGFRDLLLYVKENYGNPTVYITENGVDEFNNKTLPLQEALKDDARIEYYHKHLLSLLSAIRDGANVKGYFAWSLLDNFEWSNGYTVRFGINFVDYNDGRKRYPKNSAHWFKKFLLK
notes: recombinant from E. coli, IMAC purified; N-terminal thioredoxin and His6 tags cut off with enterokinase
Km: 10.9 ± 0.9 mM
kcat: 7.5 ± 0.0002 s⁻¹
kcat/Km: 689 M⁻¹ s⁻¹
